Results reported in doi:10.1101/2025.03.06.641827 (bioRxiv, 2025).
Positions count from the first letter of the chain named. Names and notes keep the numbering of the source.

B1: Escherichia coli threonine dehydratase (IlvA), full length, His-tagged (enzyme, UniProt P04968 1-514, looked up)
chain: MADSQPLSGAPEGAEYLRAVLRAPVYEAAQVTPLQKMEKLSSRLDNVILVKREDRQPVHSFKLRGAYAMMAGLTEEQKAHGVITASAGNHAQGVAFSSARLGVKALIVMPTATADIKVDAVRGFGGEVLLHGANFDEAKAKAIELSQQQGFTWVPPFDHPMVIAGQGTLALELLQQDAHLDRVFVPVGGGGLAAGVAVLIKQLMPQIKVIAVEAEDSACLKAALDAGHPVDLPRVGLFAEGVAVKRIGDETFRLCQEYLDDIITVDSDAICAAMKDLFEDVRAVAEPSGALALAGMKKYIALHNIRGERLAHILSGANVNFHGLRYVSERCELGEQREALLAVTIPEEKGSFLKFCQLLGGRSVTEFNYRFADAKNACIFVGVRLSRGLEERKEILQMLNDGGYSVVDLSDDEMAKLHVRYMVGGRPSHPLQERLYSFEFPESPGALLRFLNTLGTYWNISLFHYRSHGTDYGRVLAAFELGDHEPDFETRLNELGYDCHDETNNPAFRFFLAG
modifications: PLP covalently bound to Lys62
B2: Escherichia coli IlvA regulatory domain (amino acids 335-514) (domain or fragment, UniProt P04968 335-514, looked up)
chain: EQREALLAVTIPEEKGSFLKFCQLLGGRSVTEFNYRFADAKNACIFVGVRLSRGLEERKEILQMLNDGGYSVVDLSDDEMAKLHVRYMVGGRPSHPLQERLYSFEFPESPGALLRFLNTLGTYWNISLFHYRSHGTDYGRVLAAFELGDHEPDFETRLNELGYDCHDETNNPAFRFFLAG
B3: Escherichia coli IlvA regulatory domain (335-514) F352A mutant (domain or fragment, UniProt P04968 335-514, looked up)
chain: B2 chain with F18A
B4: Staphylococcus aureus IlvA regulatory domain (residues 336-422) (domain or fragment, UniProt Q2FF63 336-422, looked up)
chain: EMKHYFILNFPQRPGALREFVNDVLGPQDDITKFEYLKKSSQNTGTVIIGIQLKDHDDLIQLKQRVNHFDPSNIYINENKMLYSLLI
B5: Staphylococcus aureus threonine dehydratase (IlvA), full length (residues 1-422) (enzyme, UniProt Q2FF63 1-422, looked up)
chain: MTVKTTVSTKDIDEAFLRLKDIVKETPLQLDHYLSQKYDCKVYLKREDLQWVRSFKLRGAYNAISVLSDEAKSKGITCASAGNHAQGVAYTAKKLNLNAVIFMPVTTPLQKVNQVKFFGNSNVEVVLTGDTFDHCLAEALTYTSEHQMNFIDPFNNVHTISGQGTLAKEMLEQAKSDNVNFDYLFAAIGGGGLISGISTYFKTYSPTTKIIGVEPSGASSMYESVVVNNQVVTLPNIDKFVDGASVARVGDITFEIAKENVDDYVQVDEGAVCSTILDMYSKQAIVAEPAGALSVSALENYKDHIKGKTVVCVISGGNNDINRMKEIEERSLLYEEMKHYFILNFPQRPGALREFVNDVLGPQDDITKFEYLKKSSQNTGTVIIGIQLKDHDDLIQLKQRVNHFDPSNIYINENKMLYSLLI

Experiments:
crystal structure [1] = target: the molecule itself; experiment: crystal structure
SEC = target: the molecule itself; experiment: SEC
crystal structure [2] = target: the molecule itself; experiment: crystal structure; remark: listed apart in the source

| Protein | stoichiometry N (SEC) | further results |
| --- | --- | --- |
| B1 |  | stoichiometry N (crystal structure [1]): 4 |
| B2 | 2 |  |
| B3 |  | stoichiometry N (crystal structure [2]): 2 |
| B4 | 4 |  |
| B5 | 8 |  |
